pKd: −log10 of the molar value. Blank lines part the entries; values can stand above or below the sequence they belong to.
Experiments:
[1] = molecular target: HLA-B*08:01; assay: IEDB peptide-MHC binding, purified MHC/competitive/radioactivity; filed as Kd, often an IC50 or EC50 that approximates it; ≥ and ≤ were set here for values at or beyond the usual limits of such assays; details: source organism: Vaccinia virus WR
[2] = molecular target: HLA-B*15:01; assay: as above
[3] = molecular target: HLA-B*07:02; assay: as above
[4] = molecular target: HLA-A*23:01; assay: as above
[5] = molecular target: HLA-A*24:02; assay: as above
[6] = molecular target: HLA-B*35:01; assay: as above
[7] = molecular target: HLA-B*51:01; assay: IEDB peptide-MHC binding, purified MHC/competitive/fluorescence; filed as Kd, often an IC50 or EC50 that approximates it; ≥ and ≤ were set here for values at or beyond the usual limits of such assays; details: source organism: Listeria monocytogenes FSL J1-194
[8] = molecular target: HLA-A*02:01; assay: as above
[9] = molecular target: HLA-B*15:01; assay: as above
[10] = molecular target: HLA-A*24:03; assay: IEDB peptide-MHC binding, purified MHC/direct/fluorescence; filed as Kd, often an IC50 or EC50 that approximates it; ≥ and ≤ were set here for values at or beyond the usual limits of such assays
[11] = molecular target: HLA-A*02:02; assay: IEDB peptide-MHC binding, purified MHC/competitive/radioactivity; filed as Kd, often an IC50 or EC50 that approximates it; ≥ and ≤ were set here for values at or beyond the usual limits of such assays; details: source organism: Vaccinia virus WR
[12] = molecular target: HLA-A*02:03; assay: as above; details: source organism: Vaccinia virus WR
[13] = molecular target: HLA-A*02:06; assay: as above; details: source organism: Vaccinia virus WR
[14] = molecular target: HLA-A*32:01; assay: as above; details: source organism: Vaccinia virus WR
[15] = molecular target: HLA-A*30:01; assay: as above; details: source organism: Vaccinia virus WR
[16] = molecular target: HLA-A*26:01; assay: IEDB peptide-MHC binding, purified MHC/direct/fluorescence; filed as Kd, often an IC50 or EC50 that approximates it; ≥ and ≤ were set here for values at or beyond the usual limits of such assays
[17] = molecular target: HLA-B*08:01; assay: as above
[18] = molecular target: HLA-A*01:01; assay: as above; details: source organism: Cryptosporidium parvum
[19] = molecular target: HLA-A*02:01; assay: as above; details: source organism: Cryptosporidium parvum
[20] = molecular target: HLA-A*03:01; assay: as above; details: source organism: Cryptosporidium parvum
[21] = molecular target: HLA-A*11:01; assay: as above; details: source organism: Cryptosporidium parvum
[22] = molecular target: HLA-A*31:01; assay: as above; details: source organism: Cryptosporidium parvum
[23] = molecular target: HLA-A*69:01; assay: as above
[24] = molecular target: HLA-B*15:01; assay: as above
[25] = molecular target: HLA-B*27:05; assay: as above; details: source organism: Cryptosporidium parvum
[26] = molecular target: HLA-B*40:01; assay: as above
[27] = molecular target: HLA-B*44:02; assay: as above; details: source organism: Cryptosporidium parvum
[28] = molecular target: HLA-B*58:01; assay: as above
[29] = molecular target: HLA-B*51:01; assay: IEDB peptide-MHC binding, purified MHC/competitive/radioactivity; filed as Kd, often an IC50 or EC50 that approximates it; ≥ and ≤ were set here for values at or beyond the usual limits of such assays
[30] = molecular target: HLA-B*57:01; assay: IEDB peptide-MHC binding, purified MHC/direct/fluorescence; filed as Kd, often an IC50 or EC50 that approximates it; ≥ and ≤ were set here for values at or beyond the usual limits of such assays; details: source organism: Campylobacter jejuni
[31] = molecular target: HLA-A*29:02; assay: IEDB peptide-MHC binding, purified MHC/competitive/radioactivity; filed as Kd, often an IC50 or EC50 that approximates it; ≥ and ≤ were set here for values at or beyond the usual limits of such assays; details: source organism: Mammarenavirus machupoense
[32] = molecular target: HLA-A*01:01; assay: as above; details: source organism: Dengue virus 2 Jamaica/1409/1983
[33] = molecular target: HLA-A*30:02; assay: as above; details: source organism: Dengue virus 2 Jamaica/1409/1983
[34] = molecular target: HLA-B*53:01; assay: as above
[35] = molecular target: HLA-B*39:01; assay: IEDB peptide-MHC binding, purified MHC/competitive/fluorescence; filed as Kd, often an IC50 or EC50 that approximates it; ≥ and ≤ were set here for values at or beyond the usual limits of such assays; details: source organism: Vibrio parahaemolyticus AQ3810
[36] = molecular target: HLA-A*26:01; assay: IEDB peptide-MHC binding, purified MHC/competitive/radioactivity; filed as Kd, often an IC50 or EC50 that approximates it; ≥ and ≤ were set here for values at or beyond the usual limits of such assays; details: source organism: Dengue virus 2 Jamaica/1409/1983
[37] = molecular target: HLA-B*46:01; assay: IEDB peptide-MHC binding, purified MHC/competitive/fluorescence; filed as Kd, often an IC50 or EC50 that approximates it; ≥ and ≤ were set here for values at or beyond the usual limits of such assays; details: source organism: Haemophilus influenzae R3021
[38] = source organism: Vaccinia virus WR
[39] = source organism: Dengue virus 4 Philippines/H241/1956
[40] = source organism: Dengue virus 1 Brazil/97-11/1997
[41] = source organism: Escherichia coli O139:H28 str. E24377A
[42] = source organism: Giardia lamblia ATCC 50803
[43] = source organism: Cryptosporidium parvum
[44] = source organism: Dengue virus 2 Jamaica/1409/1983
[45] = source organism: Mammarenavirus machupoense
[46] = source organism: Haemophilus influenzae

Sequence: FLYSFFLCI
pKd [1]: 5.24
pKd [2, 38]: 5.93

Sequence: SPAAAQKATL
pKd [3, 39]: 8.40

Sequence: AMVLSIVSLF
pKd [4, 40]: 7.82
pKd [5, 40]: 6.24
pKd [2, 40]: 8.33

Sequence: MKLVMAFIAF
pKd [6, 40]: 5.74

Sequence: LIKVLVEHG
pKd [2, 38]: 6.21

Sequence: LKYAPFFQV
pKd [7]: ≤ 4.70

pKd [8, 41]: 8.77
pKd [9, 41]: 5.94
Sequence: KMSGKTPAV

Sequence: YICILINHG
pKd [2, 38]: 6.09

Sequence: ASITAFKSM
pKd [2, 38]: 7.60

Sequence: GINKRSTPF
pKd ([2]; source organism: Vaccinia virus Copenhagen): 9.14

Sequence: GYCLTRWML
pKd ([10]; source organism: Mammarenavirus lassaense): 7.40

Sequence: KLNQLSRKEF
pKd ([2]; source organism: Dengue virus 3 Martinique/1243/1999): 7.15

Sequence: SVIFYFISI
pKd [11]: 6.81
pKd [12]: 7.12
pKd [13]: 9.77
pKd [2, 38]: 6.47

Sequence: SLCKLNNVF
pKd [14]: 6.03
pKd [2, 38]: 7.80

Sequence: RIRNKFMFI
pKd [15]: 10.16
pKd [1]: 8.80
pKd [2, 38]: 6.12

Sequence: LLFVCISYY
pKd [2, 38]: ≤ 4.11

Sequence: ELVDTTEMY
pKd ([16]; source organism: Mycobacterium tuberculosis variant bovis): 6.68
pKd ([9]; source organism: Mycobacterium tuberculosis H37Rv): 6.49

Sequence: EMKLRQKQL
pKd [17, 42]: 7.42
pKd [8, 42]: ≤ 4.70

Sequence: RLLRMNNEN
pKd [18]: ≤ 4.70
pKd [19]: ≤ 4.70
pKd [20]: ≤ 4.70
pKd [21]: ≤ 4.70
pKd [16, 43]: ≤ 4.70
pKd [22]: ≤ 4.70
pKd [23, 43]: ≤ 4.70
pKd [17, 43]: ≤ 4.70
pKd [24, 43]: ≤ 4.70
pKd [25]: ≤ 4.70
pKd [26, 43]: ≤ 4.70
pKd [27]: ≤ 4.70
pKd [28, 43]: ≤ 4.70

Sequence: SPNPTIEAGR
pKd [3, 44]: 5.85

Sequence: GPMVAGGLLL
pKd [3, 39]: 7.44
pKd [29, 39]: ≤ 4.16

Sequence: KSNKIRGRM
pKd [30]: 6.01
pKd ([28]; source organism: Campylobacter jejuni): 6.72

Sequence: LAYTIGTTHF
pKd [5, 44]: 6.64
pKd [6, 44]: 5.85

Sequence: SPAAAQKAT
pKd [3, 39]: 7.84

Sequence: PYENLLYKL
pKd ([10]; source organism: Mammarenavirus paranaense): 6.10
pKd [4, 45]: 7.09
pKd [5, 45]: 6.28
pKd [31]: 5.63

Sequence: GYQHKTLAI
pKd ([10]; source organism: Vibrio vulnificus): 8.19

Sequence: LLSPVRVPNY
pKd [32]: 4.82
pKd [33]: 6.51
pKd [2, 44]: 8.52

Sequence: IANQAAVLM
pKd [6, 39]: 7.12

Sequence: IAMTDTTPF
pKd [2, 40]: 8.37
pKd [6, 40]: 8.93
pKd [34, 40]: 6.76

Sequence: MATFKMRPM
pKd [3, 40]: 6.80

Sequence: KAAKRISHG
pKd [2, 38]: 5.11

Sequence: THPERTLRL
pKd [35]: 5.60

Sequence: FTIMAAILAY
pKd [32]: 6.01
pKd [36]: 7.26
pKd [33]: 5.66
pKd [2, 44]: 8.66
pKd [34, 44]: 5.46

Sequence: LMRRGDLPVW
pKd [2, 44]: 6.80

Sequence: RPVKEKEENL
pKd [3, 40]: 6.12

Sequence: KNNNEFAFF
pKd [2, 38]: 5.88

Sequence: LPGADTQGSN
pKd [6, 44]: 5.55

Sequence: NPNMTDKTPV
pKd [3, 39]: 6.93

Sequence: FIAKHFLEL
pKd [1]: 8.89
pKd [2, 38]: 5.19

Sequence: KAFKKFPSG
pKd [15]: 6.61
pKd [2, 38]: 5.52

Sequence: YPKTKLTDWD
pKd [6, 39]: 5.88

Sequence: LVSLLGSAL
pKd [3, 39]: 7.35

Sequence: ILWILDRLF
pKd ([9]; source organism: Influenza A virus (A/Memphis/1/1978(H1N1))): ≤ 4.70

Sequence: QPHWIAASII
pKd [3, 44]: 7.32
pKd [29, 44]: 6.33

Sequence: QLNQLSKSEF
pKd [2, 40]: 7.14

pKd [23, 46]: 5.01
pKd [24, 46]: 7.37
pKd [26, 46]: 5.53
pKd [37]: 5.62
Sequence: EQFPNATAF

Sequence: KQEHETSWHY
pKd [33]: ≤ 4.16
pKd [2, 44]: 6.90

Sequence: SPIINRKGKV
pKd [3, 39]: 6.61
pKd [29, 39]: ≤ 4.16
